Experimental data as given in paper PMC2760858.

How the values were obtained:
[1] = molecular target: endogenous phospho-ERK1/2 (human (endogenous in HeLa)) (UniProt P27361); test: FRET or BRET; acceptor photobleaching FRET in fixed untransfected HeLa cells; endogenous phospho-ERK1/2 and partner labelled with primary antibodies and Cy3- or Cy5-conjugated secondary antibodies; Cy3/Cy5 pair
hERK1-GFP (human) = hERK1-GFP (human) (UniProt P27361); test: FRET or BRET; acceptor photobleaching FRET in fixed HeLa cells transfected with hERK1-GFP; partner labelled with primary antibody and Cy3-conjugated secondary antibody; GFP/Cy3 pair
[2] = molecular target: GST-hERK1 recombinant protein (human) (UniProt P27361); test: non-reducing SDS-PAGE after pull-down, band identified by MALDI-TOF-MS; GST-hERK1 on GSH-agarose incubated with HeLa mitochondrial extract, high stringency; electrophoresis in the absence of β-ME or DTT; band of MW ~130

## Histone H2A (from UniProt P0C0S8 1-130) (natural protein)
[1]
  mean FRET efficiency: 0.17
hERK1-GFP (human)
  FRET efficiency (nuclei): 0.3

## Histone H4 (from UniProt P62805 1-103) (natural protein)
hERK1-GFP (human)
  FRET efficiency (nuclei): 0.2

## Porin 31HL (VDAC1), voltage-dependent anion channel 1 (from UniProt P21796 1-283) (natural protein)
hERK1-GFP (human)
  mean FRET efficiency (cytoplasm): 0.3

## GST-hERK1 recombinant protein (from UniProt P27361 1-379) (enzyme)
[2]
  stoichiometry N: 2
